{
  "source": "paper PMC3467281",
  "molecular_target": "T1, Fas (mouse (endogenous in WEHI-231)) (UniProt P25446)",
  "T1 sequence": "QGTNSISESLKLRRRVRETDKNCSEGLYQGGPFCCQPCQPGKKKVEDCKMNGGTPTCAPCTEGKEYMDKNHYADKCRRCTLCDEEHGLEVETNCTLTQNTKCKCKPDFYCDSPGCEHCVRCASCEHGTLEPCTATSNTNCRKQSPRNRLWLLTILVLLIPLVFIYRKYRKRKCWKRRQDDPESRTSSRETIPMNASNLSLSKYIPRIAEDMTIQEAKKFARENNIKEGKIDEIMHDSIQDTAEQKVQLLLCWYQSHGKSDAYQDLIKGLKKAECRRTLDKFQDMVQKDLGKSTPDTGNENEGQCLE",
  "data": [
    {"substance": "FasL (from UniProt P41047 1-279) (ligand)", "values": [
      {"measurement": "survival of p21–35-loaded WEHI-231 cells co-cultured with the cytolytic CD4+ T cell clone R3TB7, restored by increasing concentrations of an anti-FasL antibody (Annexin V / 7-AAD) (% of WEHI-231 cell survival)", "result": 80}
    ]}
  ]
}
